Reference: the supplement of paper PMC9170038

Test system: MS2 coat protein
Experiment: apparent KD of MS2 coat protein; designed switch direction (-1 OFF switch, 1 ON switch): 1; higher = weaker reporter binding
How it was run: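 Transcription of designed RNA switches on Illumina chips was done by stalled E. coli RNA polymerase. SNAP-549-labelled MS2 coat protein was then titrated in doubling steps from 0.7 or 1.5 nM to 3 µM, with steps of 0.8–1.5 h at the lowest and 10–20 min at the highest concentration. The per-design median over clusters of curve-fitted normalised fluorescence is reported as apparent KD.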

[1] = input ligand: microRNA oligo, concentration not stated
[2] = Eterna round: R95, input ligand: FMN 200 uM
[3] = Eterna round: R95, input ligand: microRNA oligo, concentration not stated
[4] = Eterna round: R95, input ligand: none

Sequence | apparent KD of MS2 coat protein (input ligand: FMN 200 uM) [nM] | apparent KD of MS2 coat protein [1] [nM] | apparent KD of MS2 coat protein (input ligand: none) [nM] | apparent KD of MS2 coat protein [2] [nM] | apparent KD of MS2 coat protein [3] [nM] | apparent KD of MS2 coat protein [4] [nM]
ACAUGAGACUCAGGAUAUGGUGUACCUACAUGUGACAUGAGGAUCACCCAUGUGGUAAGUAUGACUCAGAAGGGAGAGAUAUGU [Equivalance 76 - Jieux - Same State NG 2] (Eterna round: R96, puzzle: Same State NG 2) | 37.4 | 116 | 171 |  |  | 
ACAUGAGACUUAGGAUAUGUUGUACCUACAUGUGACAUGAGGAUCACCCAUGUGGUAAGUAUGAGACAGAAGGAAGAGAUAUGU [Equivalence 29 - Jieux - Same State NG 2] (Eterna round: R96, puzzle: Same State NG 2) | 7.53 | 26.3 | 54.7 |  |  | 
ACAUGAGACUUAGGAUAUGUUGUACCUACAUGUGACAUGAGGAUCACCCAUGUGGUAAGUAUGAGGCAGAAGGAAGAGAUAUGU [Equivalence 39 - Jieux - Same State NG 2] (Eterna round: R96, puzzle: Same State NG 2) | 23.5 | 45.9 | 73.1 |  |  | 
ACAUGAGAGAUAGGAUAUCAUGUACCUACAUGUGACAUGAGGAUCACCCAUGUGGUAAGUAUGAGUGAGAAGGAUCAGAUAUGU [Equivalence 35 - Jieux - Same State NG 2] (Eterna round: R96, puzzle: Same State NG 2) | 47.9 | 272 | 467 |  |  | 
ACAUGAGAGAUAGGAUAUCUUGUACCUACAUGUGACAUGAGGAUCACCCAUGUGGUAAGUAUGAGGGAGAAGGGUCAGAUAUGU [Equivalence 45 - Jieux - Same State NG 2] (Eterna round: R96, puzzle: Same State NG 2) |  | 42.7 |  |  |  | 
ACAUGAGAGAUAGGAUAUGCUGUACCUACAUGUGACAUGAGGAUCACCCAUGUGGUAAGUAUGAGGCAGAAGGAUCAGAUAUGU [Equivalence 49 - Jieux - Same State NG 2] (Eterna round: R96, puzzle: Same State NG 2) | 13.6 | 17.3 | 23.2 |  |  | 
ACAUGAGAUCGAGGAUAUUUUGUACCUACAUGUGACAUGAGGAUCACCCAUGUGGUAAGUAUGAGAAAGAAGGCGAAGAUAUGU [Equivalence 16 - Jieux - Same State NG 2] (Eterna round: R96, puzzle: Same State NG 2) |  | 29.3 |  |  |  | 
ACAUGAGGAUCACCCAUGUAACACCUGAAAAUAAAACGAACACAGGAUAUCCCAGCAUGACGCCGGGAGAAGGGUGAUCGAAGA [Quorer] (Eterna round: R96, puzzle: Same State NG 3) | 124 | 118 | 52.8 |  |  | 
ACAUGAGGAUCACCCAUGUAACACCUGAAAAUAAAACGAACACAGGAUAUCCCGGCAAGACACCGGGAGAAGGGUGAUCGAAGA [Eresorbe] (Eterna round: R96, puzzle: Same State NG 3) | 411 | 13.6 | 90.9 |  |  | 
ACAUGAGGAUCACCCAUGUCUUUAUCCGAUUCUUCAUUUACGUAGGAUAUCGUCUAUACUAUCAUCGAGAAGGACGUUCUUUAA [JR_SSNG3_Sub070] (Eterna round: R96, puzzle: Same State NG 3) |  | 13.9 |  |  |  | 
ACGCCCUCAGUAGGAUAUGGGAAAGGAAGUGUACCAGAAGGACUGGUUGAACAUGAGGAUCACCCAUGUUCAACGACAGGGCAA [PowerStrip SSNG 1.20] (Eterna round: R96, puzzle: Same State NG 1) | 18.6 | 13.9 | 18.6 |  |  | 
ACGCCUAAACGGCGAAAACGACAUGAGGAUCACCCAUGUACACAGGAUAUCAGCCUGCAACAGGCUGAGAAGGGUGAACCUAAA [Atatmadiar] (Eterna round: R96, puzzle: Same State NG 3) | 711 | 35.5 | 155 |  |  | 
ACUCAGUACAAUUUAGAUCUACAUGAGGAUCACCCAUGUACUGAGGAUAUCAGCUCGUUUAGAGCUGAGAAGGCAGUUGUACUA [SSNG3/10-A3] (Eterna round: R96, puzzle: Same State NG 3) | 108 | 221 | 311 |  |  | 
ACUCUCACAGUAGGAUAUGUAGGAUAUGCCUACAUGAGGAUCACCCAUGUAAACAUGGCAGAAGGAUAGAAGGACUGACAUGGG [pwkr ssNG2 2FMN + 1F5.3] (Eterna round: R96, puzzle: Same State NG 2) | 274 | 233 | 278 |  |  | 
AGAAAGAAACAUGAGGAUCACCCAUGUACAAGCUUUUUGCUCGUCUUAUUACAUGGGUUCAUGGGUGAUCGGGAUGU [Tim MacKenzie] (puzzle: Sensor for hsa-mir-208a version 2) |  |  |  | 11.1 | 13.1 | 19.9
AGAAGACAUGAGGAUCACCCAUGUCCCUCAUGCGUAGGAUAUAUAAGAAGAAAGAAAAGGAUAGAAGGACGAAAAG [Default title] (puzzle: Same State 1) |  |  |  | 97.5 | 119 | 194
AGAGAAGAAGCUGAGGAUAUCGUAAGGAGGACAUGAGGAUCACCCAUGUGUGUGGAAUUGGAGGACGAGAAGGCAGAGGAGUGGG [JR_SS2_Sub056] (puzzle: Same State 2) |  |  |  | 25.1 | 28.3 | 27.8
AGAGGAGGAGCAGGAUAUGCGAAGAAGAACGAGGUAGAAGGGCUCAUGCGAUGACAUGAGGAUCACCCAUGUACCGCGCGAGGA [AK SSNG1-V2-8.2] (Eterna round: R96, puzzle: Same State NG 1) | 207 | 209 | 142 |  |  | 
AGAGGAGGCGCAGGAUAUACGACGGAGGACGUGGUAGAAGGGUGCAUGCGAUAACAUGAGGAUCACCCAUGUACCGCGCGACGA [AK SSNG1-V2-17] (Eterna round: R96, puzzle: Same State NG 1) | 210 | 30.2 | 198 |  |  | 
AGAUAAGUCACAGGAUAUUCCUACAUUAAUAUGGAAGAAGGGUGAGCAUGAUUCGAUACAUGAGGAUCACCCAUGUAUCCGCGA [Eternabot solution 31] (Eterna round: R96, puzzle: Same State NG 1) |  | 54 |  |  |  | 
AGAUCAUGACGAGGAUAUCCGACAUGAGGAUCACCCAUGUAUGUCGGAGGACGCGUACGUCCAAUGGAGAAGGCGUCGUGGUCA [JL SSNG2 1.03] (Eterna round: R96, puzzle: Same State NG 2) | 18.2 | 73.7 | 82.5 |  |  | 
AGAUCAUGACGAGGAUAUGGUACAUGAGGAUCACCCAUGUAUGUACCAUAAUUAGUAUUAGGAAACCAGAAGGCGUCGUGGUCA [JL SSNG2 1.18] (Eterna round: R96, puzzle: Same State NG 2) | 10.1 | 55.7 | 85.4 |  |  | 
AGAUCAUGACGAGGAUAUGGUACAUGAGGAUCACCCAUGUAUGUACCAUAGCAACAGCUAGGAAACCAGAAGGCGUCGUGGUCA [jandersonlee JLSSNG2 1.18 Native F5 + F7] (Eterna round: R96, puzzle: Same State NG 2) | 13.6 | 15.6 | 26.6 |  |  | 
AGAUCAUGACGAGGAUAUGGUACAUGAGGAUCACCCAUGUAUGUACUAUAAUUCGAAUGAGGAAUCCAGAAGGCGUCGUGGUCA [JL SSNG2 1.15] (Eterna round: R96, puzzle: Same State NG 2) | 15.3 | 29.6 | 55.4 |  |  | 
AGAUGUUAAUCAGGAUAUGGGCACAUGAGGAUCACCCAUGUAAAUUCGAUACUAUGUGGACACGUCUAGAAGGGAUGGCUAACA [SameState NG2 #83] (Eterna round: R96, puzzle: Same State NG 2) | 125 | 73.5 | 106 |  |  | 
AGAUGUUAAUCAGGAUAUGGGCACAUGAGGAUCACCCAUGUAACGUAGAUACGAUGUGGUCAAGUCUAGAAGGGAUAGCUAACA [SameState NG2 #78] (Eterna round: R96, puzzle: Same State NG 2) | 125 | 60.7 | 65.9 |  |  | 
AGCAAAGCGACAGGAUAUGGUAAGGAUCUCUUACCAGAAGGGUCAAGUGCAUGACAUGAGGAUCACCCAUGUAGGUUGUUUACC [Eternabot solution 44] (Eterna round: R96, puzzle: Same State NG 1) | 18.2 | 18.5 | 26.5 |  |  | 
AGCCGAGACACAGGAUAUAGAUAUCUACAUGAGGAUCACCCAUGUAGCAACACGUGGUAGUGAUACUAGAAGGGUGCUCGGCGC [Omei SS(NG)2 Cv9] (Eterna round: R96, puzzle: Same State NG 2) | 20.2 | 60 | 73.1 |  |  | 
AGCCGAGACACAGGAUAUAGAUGUUUACAUGAGGAUCACCCAUGUAGCAACACGUGGUAGUGAUUCUAGAAGGGUGCUCGGCGC [Omei SS(NG)2 Cv11] (Eterna round: R96, puzzle: Same State NG 2) | 36.3 | 116 | 167 |  |  | 
AGCCGAGACUGAGGAUAUUUGAAUCUACAUGAGGAUCACCCAUGUAGCAACACGUGGUAGUGAUCGAAGAAGGCAGCUCGGCGC [MOD of Omei's SS(NG)2 Cv2] (Eterna round: R96, puzzle: Same State NG 2) | 22.6 | 45.7 | 57 |  |  | 
